The source of these data is patent US20070185028A1, “Compositions and methods for treatment of protein misfolding and protein aggregation diseases” (priority 2004, published 2007).

Common to all, as to format: biochemical
The target in one assay is T1, β2-microglobulin (β2m) (Homo sapiens, UniProt P61769).
T1 construct: purchased MP Biomedical
The assay is described as follows: β2-microglobulin fibrillation ThT assay. Particulars: 1:1 ratio. As to the method: Addition of 5.8 μM αB crystallin peptides, ST, DR, LT, HG, and ER decreased the ThT fluorescence of β2m by 40-64%. When the concentration of the αB crystallin peptides was increased to 29 μM and 145 μM, no further decrease in ThT fluorescence was observed. The negative control peptide AT1 had no effect on β2m fibrillation even at a concentration as high as 290 μM. All five αB crystallin peptides inhibited β2m fibrillation at sub-stoichometric and stoichometric concentrations (5.8 μM and 29 μM).
The Thioflavin T (ThT) fluorescence of β2m in the presence of varying concentrations of αB crystallin peptides and controls was measured. […] When the concentration of the peptides was increased to 29 μM (1:1::peptide:β2m), the αB crystallin peptides decreased the ThT fluorescence by 35-65%. When the concentration of the peptides was increased further to 145 μM ([…]), the αB crystallin peptides decreased the ThT fluorescence by 13-27%. […] The formation and inhibition of β2-microglobulin fibrils was verified microscopically.
β2-microglobulin fibrillation ThT assays were performed as described previously. Raman et al., Biochem J 392:573-81, 2005; Ivanova et al., Proc Natl Acad Sci USA 101:10584-9, 2004. Peptides were dissolved to 2 mM in 0.25% DMSO and diluted accordingly, while β2-microglobulin was dissolved in 25 mM sodium acetate, 25 mM sodium phosphate, pH 2.4. For the 5:1::peptide:β2-microglobulin assay, 10 μL of 430 μM peptide was mixed with 10 μL of 86 μM β2-microglobulin, 7 μl of 25 mM sodium acetate, 25 mM sodium phosphate, pH 2.4 and 3 μL of 1 mM ThT. For the 1:1::peptide:β2-microglobulin assay, 10 μL of 86 μM peptide was mixed with 10 μL of 86 μM (2-microglobulin, 7 μl of 25 mM sodium acetate, 25 mM sodium phosphate, pH 2.4 and 3 μL of 1 mM ThT. For the 1:5::peptide:β2-microglobulin assay, 10 μL of 17.2 μM peptide was mixed with 10 μL of 86 μM β2-microglobulin, 7 μl of 25 mM sodium acetate, 25 mM sodium phosphate, pH 2.4 and 3 μL of 1 mM ThT. ThT fluorescence was measured using a Perkin Elmer Victor^3 V plate reader. Assays were performed in 384-well fluorescence plates in duplicates or triplicates. Samples were incubated at 37° C. ThT fluorescence was measured continuously for 180 minutes. The effect of the peptides and APS was calculated as percentage fibril formation relative to β2-microglobulin alone (100%) at the end of 180 minutes.

Another assay concerns the target amyloid beta (1-42) (Homo sapiens, UniProt P05067). Kind of assay: Cu+++-induced aggregation of amyloid beta (1-42), light scattering 360 nm. Particulars: 100 mM Cu+++. As to the method: In vitro assays were also performed to measure the ability of the human αB crystallin derived peptides identified in Example 1 to inhibit aggregation of Cu^+++-induced amyloid beta (1-42) aggregation. Aggregation assays were performed using routine procedures, in the presence or absence of a synthesized peptide identified in Example 1, in the presence of 100 mM Cu^+++. Aggregation was measured spectrophotometrically as light scattering at a wavelength of 360 nm. Aggregated amyloid-beta was assigned a value of 100% aggregation and used to normalize aggregation in the presence of synthesize peptides.
Aggregation was measured spectrophotometrically as light scattering at a wavelength of 360 nm. Aggregated amyloid-beta was assigned a value of 100% aggregation and used to normalize aggregation in the presence of synthesize peptides. Aggregation was plotted as a bar graph with the standard error for duplicate experiments. The 1 st vertical bar is the scattering measured for aggregated amyloid-beta (100% aggregation) in the presence of 100 mM Cu^+++. The 2nd-4th vertical bars is the scattering from amyloid-beta in the presence of wild type recombinant human αB crystallin. The 5th-13th vertical bars are the scattering of amyloid-beta in the presence of the synthetic peptides, DRFSVNLDVKHFS or LTITSSLSDGV or HGKHEERQDE at selected concentrations. A prefix of 10× represents a 10:1 molar concentration of amyloid-beta to either wild type αB crystallin or its peptides. A prefix of 1× represents a 1:1 molar concentration of amyloid-beta to either wt αB crystallin or its peptides. A prefix of 0.1× represents a 1:10 molar concentration of amyloid-beta to either wt αB crystallin or its peptides.

Another assay relates to βH crystallin. The assay is described as follows: Chaperone assay, thermal aggregation of βH crystallin at 50° C. Particulars: 50:1 molar ratio of peptide:βH crystallin, sixty minutes, 340 nm. As to the method: (§1) The chaperone activity of the peptides was measured as their ability to protect against the thermal aggregation of three chaperone target proteins βH crystallin, ADH and CS in chaperone assays performed at 50° C. (FIG. 19). A non-interactive αB crystallin sequence 111HGKHEERQDE120 was used as the negative control in the chaperone assays (FIG. 19). Based on near and far UVCD, the three target proteins unfolded in the order: CS>>>ADH>>βH crystallin when they were heated at 50° C. for sixty minutes (FIGS. 15 and 16). The thermal aggregation of βH crystallin, ADH and CS was measured as light scattering at λ=340 nm in the presence and absence of each peptide. The chaperone activity of each peptide was calculated as percent protection in which the aggregation of each target protein in the absence of any peptides was set at 0% protection (FIG. 19). The interactive peptides […] and 131LTITSSLSDGV141 were effective inhibitors of aggregation of all three chaperone target proteins.
(§2) A (top left): thermal aggregation of chaperone target proteins βH crystallin, ADH and CS in the absence of peptides was measured as light scattering at λ=340 nm. Each target protein was heated at 50° C. for sixty minutes in the absence or presence of one of the peptides. […] The chaperone activity of each peptide was calculated as percent protection in which the aggregation of each target protein in the absence of any peptides was set at 0% protection. The ability of the 73DRFSVNLDVKHFS85, 131LTITSSLSDGV141 and 111HGKHEERQDE120 to protect against the thermal aggregation of βH crystallin (B: top right), ADH (C: bottom left) and CS (D: bottom right) were tested in vitro (vertical bars). […] A 10:1 molar ratio of peptide:target protein was sufficient in conferring significant protection against the aggregation of CS by 73DRFSVNLDVKHFS85 and 131LTITSSLSDGV141.

Another assay addresses ADH (Equus caballus, UniProt P00327). The assay is described as follows: Chaperone assay, thermal aggregation of ADH at 50° C. To be noted: 50:1 molar ratio of peptide:ADH, sixty minutes, 340 nm. As to the method:
as §1, §2

T1 sequence (P61769 21-119): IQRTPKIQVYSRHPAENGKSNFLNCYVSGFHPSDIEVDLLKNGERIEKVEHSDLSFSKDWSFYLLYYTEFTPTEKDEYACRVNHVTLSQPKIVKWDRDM
Chain of ADH (P00327 whole entry): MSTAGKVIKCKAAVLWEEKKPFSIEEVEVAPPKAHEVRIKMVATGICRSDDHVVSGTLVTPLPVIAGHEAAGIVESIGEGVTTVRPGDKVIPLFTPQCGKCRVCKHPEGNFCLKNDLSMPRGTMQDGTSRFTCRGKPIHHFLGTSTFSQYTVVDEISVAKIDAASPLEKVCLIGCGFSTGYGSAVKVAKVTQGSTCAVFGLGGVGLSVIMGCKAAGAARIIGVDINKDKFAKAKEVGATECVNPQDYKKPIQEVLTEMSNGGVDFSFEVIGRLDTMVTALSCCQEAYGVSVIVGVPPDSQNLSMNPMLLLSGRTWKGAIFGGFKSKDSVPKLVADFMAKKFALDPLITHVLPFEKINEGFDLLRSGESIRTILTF

With EERQ, the “inhibition of β2-microglobulin fibril formation, HG derived peptides” value with β2-microglobulin (β2m) is on record as around 100%.
As for LTITSSLSDGV, the “prevention of Cu+++-induced aggregation of amyloid-beta” value in the assay with amyloid beta (1-42) (1:1 and 1:10 molar ratio of amyloid-beta to peptide) is listed as “equally effective”; with amyloid beta (1-42) (10:1 molar ratio of amyloid-beta to peptide), “less effective”. For the same substance, the “percent protection against thermal aggregation of βH crystallin” value with βH crystallin was “approximately 30%”. In the assay with ADH, the “percent protection against thermal aggregation of ADH” value was “approximately 30%”.
Regarding RQDE, the “inhibition of β2-microglobulin fibril formation, HG derived peptides” value with β2-microglobulin (β2m) was around 100%.
